Test results taken from US20190077849A1.

Assays:
Experiment in all cases: cell-based or functional assay
[1] = target: HIV-1 Env of KER2008.12.SG3 pseudovirus (clade A) (HIV-1)
[2] = target: HIV-1 Env of TH966.8.SG3 pseudovirus (clade AE) (HIV-1)
[3] = target: HIV-1 Env of ZM215.8.SG3 pseudovirus (clade C) (HIV-1)
[4] = target: HIV-1 Env of 6101.10.SG3 pseudovirus (clade B) (HIV-1)
[5] = target: HIV-1 Env of PVO.04.SG3 pseudovirus (clade B) (HIV-1)
[6] = target: HIV-1 Env of ZM106.9.SG3 pseudovirus (clade C) (HIV-1)
[7] = target: HIV-1 Env of CNE31.SG3 pseudovirus (clade C) (HIV-1)
[8] = target: HIV-1 Env of 6095.V1.C10.SG3 pseudovirus (clade ACD) (HIV-1)
[9] = target: HIV-1 Env of YU2.DG.SG3 pseudovirus (clade B) (HIV-1) (UniProt P35961)

Chain of 10E8v4 S100cL (antibody) (VH): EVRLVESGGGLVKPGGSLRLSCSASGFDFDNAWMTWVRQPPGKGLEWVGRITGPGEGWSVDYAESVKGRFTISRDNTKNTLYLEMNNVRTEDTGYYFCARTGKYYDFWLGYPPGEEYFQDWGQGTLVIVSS
Chain of 10E8v4 S100cL (antibody) (VL): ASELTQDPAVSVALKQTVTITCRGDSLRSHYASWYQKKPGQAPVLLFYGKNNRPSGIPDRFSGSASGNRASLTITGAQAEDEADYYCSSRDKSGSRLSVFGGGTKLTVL
Chain of 10E8v4 S100cY (antibody) (VH): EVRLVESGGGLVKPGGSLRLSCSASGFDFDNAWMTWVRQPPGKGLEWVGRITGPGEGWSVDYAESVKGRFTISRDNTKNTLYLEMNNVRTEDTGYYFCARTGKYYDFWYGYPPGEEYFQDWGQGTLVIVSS
Chain of 10E8v4 S100cY (antibody) (VL): as the sequence (VL) above
Chain of 10E8v4 S100cR (antibody) (VH): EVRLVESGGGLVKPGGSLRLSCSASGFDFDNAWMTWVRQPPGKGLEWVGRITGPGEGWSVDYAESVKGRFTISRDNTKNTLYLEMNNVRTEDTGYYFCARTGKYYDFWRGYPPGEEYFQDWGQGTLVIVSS
Chain of 10E8v4 S100cR (antibody) (VL): as the sequence (VL) above

| Substance | IC50, pseudovirus neutralization [1] | IC80, pseudovirus neutralization [1] | IC50, pseudovirus neutralization [2] | IC80, pseudovirus neutralization [2] | IC50, pseudovirus neutralization [3] | IC80, pseudovirus neutralization [3] | IC50, pseudovirus neutralization [4] | IC80, pseudovirus neutralization [4] | IC50, pseudovirus neutralization [5] | IC80, pseudovirus neutralization [5] | IC50, pseudovirus neutralization [6] | IC80, pseudovirus neutralization [6] | IC50, pseudovirus neutralization [7] | IC80, pseudovirus neutralization [7] | IC50, pseudovirus neutralization [8] | IC80, pseudovirus neutralization [8] | IC50, pseudovirus neutralization [9] | IC80, pseudovirus neutralization [9] |
| --- | --- | --- | --- | --- | --- | --- | --- | --- | --- | --- | --- | --- | --- | --- | --- | --- | --- | --- |
| 10E8v4 S100cY (antibody) | > 50 µg/mL | > 50 µg/mL | 0.011 µg/mL | 0.075 µg/mL | 0.028 µg/mL | 0.129 µg/mL | 0.009 µg/mL | 0.063 µg/mL | 0.412 µg/mL | 3.44 µg/mL | > 50 µg/mL | > 50 µg/mL | 0.368 µg/mL | 1.39 µg/mL | 0.001 µg/mL | 0.006 µg/mL | 0.376 µg/mL | 2.25 µg/mL |
| 10E8v4 S100cL (antibody) | > 50 µg/mL | > 50 µg/mL | 0.011 µg/mL | 0.079 µg/mL | 0.015 µg/mL | 0.095 µg/mL | 0.007 µg/mL | 0.049 µg/mL | 0.507 µg/mL | 2.21 µg/mL | > 50 µg/mL | > 50 µg/mL | 0.354 µg/mL | 1.01 µg/mL | 0.001 µg/mL | 0.002 µg/mL | 0.333 µg/mL | 1.75 µg/mL |
| 10E8v4 S100cR (antibody) | > 50 µg/mL | > 50 µg/mL | 0.168 µg/mL | 0.648 µg/mL | 0.363 µg/mL | 1.34 µg/mL | 0.176 µg/mL | 0.891 µg/mL | 6.45 µg/mL | 25 µg/mL | > 50 µg/mL | > 50 µg/mL | 2.54 µg/mL | 8.42 µg/mL | 0.011 µg/mL | 0.048 µg/mL | 3.87 µg/mL | 12 µg/mL |
